Assay results: the DeepSol protein solubility set

Test: soluble on expression in E. coli; label from the status in PepcDB or PDB records

| Sequence | soluble on expression in E. coli |
| --- | --- |
| MFDFSKVVDRHGTWCTQWDYVADRFGTADLLPFTISDMDFATAPCIIEALNQRLMHGVFGYSRWKNDEFLAAIAHWFSTQHYTAIDSQTVVYGPSVIYMVSELIRQWSETGEGVVIHTPAYDAFYKAIEGNQRTVMPVALEKQADGWFCDMGKLEAVLAKPECKIMLLCSPQNPTGKVWTCDELEIMADLCERHGVRVISDEIHMDMVWGEQPHIPWSNVARGDWALLTSGSKSFNIPALTGAYGIIENSSSRDAYLSALKGRDGLSSPSVLALTAHIAAYQQGAPWLDALRIYLKDNLTYIADKMNAAFPELNWQIPQSTYLAWLDLRPLNIDDNALQKALIEQEKVAIMPGYTYGEEGRGFVRLNAGCPRSKLEKGVAGLINAIRAVR | soluble |
| APGVSTILDNRNNPIAWVYKQRRFEIPSEAIPQSMKDAIVSIEDRRFYEHKGVDIQGNLRAIVTNIFAGGVAQGASTIDQQYVKNFLLLVKSDNPEEQAAATETSIPRKLREMRMASTIDSTLSKDDILTRYLNLVHLGNGAFGVEAAARTYFGKGAPELSLAQSAMFAGIVQSSSY | not soluble |
| SLGSQSSKAPRGDVTAEEAAGASPAKANGQENGHVKSNGDLSPKGEGESPPVNGTDEAAGATGDAIEPAPPSQGAEAKGEVPPKETPKKKKKFSFKKPFKMSGMSFKRNRKEGGGDSSASSPTEEEQEQGEIGACSDEGTAQEGKAAATPESQEPQAKGAEASAASEEEAGPQATEPSTPSGPESGPTPASAEQNE | soluble |
| MGSDKIHHHHHHMIIGGLYMKFFEENYSQEIPTRIKNLRKKHNITQSELGNAGQVSQVESGKRPITSSMLVYLNALTASNYTYIVFGELDEFIENLFHYFFSSILYRDLEAVDENLYSFMSDDLISIQSSCLSIAKTFANFNIQRKRFMISTETEMDTFHKKDDIDVWVGGKSYNPARSFRNNPINELTVIDFEEMADILLLMLRDNLIRSFEINVCNTLFELDKNGEPTTFNLDKIDSIINKWWSENVSTEIIPNLIKKLRENPLFNIGFMVNDILERMYKEDIPKSYLTSVPLVISKKARSTLSIKSNGSQKIDKSKFAQILSL | not soluble |
| MGSDKIHHHHHHMNFDVAIIGGGLAGLTCAIALQQRGKRCVIINNGQAAIDFASGSLDLLSRMPSTTYGENRAVENLKENITALRNELPAHPYSLLGAEKVLAKAQDFERLANELHLDLIGSTEKNHWRVTGLGSLRGAWLSPNSVPTVQGNEPFPHKRIAVLGIEGYHDFQPQLLAANLVLNPQFEHCEVTSGFLNIPQLDELRKNAREFRSVNISQLLEHKLAFKDLVKEIIESAQGAEAVFLPACFGLENQEFMTALRDATKLALFELPTLPPSLLGMRQRIQLRHKFESLGGLMINGDSALNATFEGNQVRCINTRLLEDEEITADNFVLASGSFFSKGLISEFDKIYEPVFESDIIGVEGFNNKDRFTWTAHRFAHPQPYQSAGVAINAQCQVKKCGQFLTNLYAVGNVIGGFNALELGCGSGVAVVTALAVADEILAK | not soluble |
| MAHHHHHHLPALKLALEYIVPCMNKHGICVVDDFLGKETGQQIGDEVRALHDTGKFTDGQLVSQKSDSSKDIRGDKITWIEGKEPGCETIGLLMSSMDDLIRHCNGKLGSYKINGRTKAMVACYPGNGTGYVRHVDNPNGDGRCVTCIYYLNKDWDAKVSGGILRIFPEGKAQFADIEPKFDRLLFFWSDRRNPHEVQPAYATRYAITVWYFDADERARAKVKYLTGEKGVRVELNKPSDSVGKDVF | soluble |
| MASLGEILEGRATDIYFVRTRRVAEKYGVGGKRVRMEVHAYSLPRGYEWAVYAGLEEALALLQGKPVTVYSLPEGTVFERKDPLMVVEGRFQDIILFETALLGLLRFSTSIATKAARVRLAAGRGKTVLFFGLRALHPAVQPAADRAALVGGLDGVSGVLSREYLGVEPRGTMPHALIIVFGSQVEAWRAFAETFKEETPVIALVDTFWDEREEALMAARELGEVLAGVRLDTPSSRRGRMRDIVEEVRWALDIHGYKHVKIFVSGGLDEERVAELRDVADGFGVGTTIAAAPNIDISMDVVEVHEDGEWRPRTKRGKLPGARSIVLCRGEKRIVRLGEEPEGCEPLTRKYLEEGRLAQSLPSLDEIRSYVLKQLENLGLQ | soluble |
| MAHHHHHHMSWRARFTPCVGSLTVWLNPKDPNCFGVRNWWRNNLPELQLLNPFCTFTIQELSFGEPHMYVNYTPTDQRMIRLAGATEEECEEIMEACITYGMNHAIIERPRTDDGGDLVNQPAITSFGYTESFTAKLEVAPPADIGQKTTEGVDDPGQKPRLYPRNVGCKLMP | not soluble |
| GLDNELSLVDGQDRTLTVQQWDTFLNGVFPLDRNRLTREWFHSGRAKYIVAGPGADEFEGTLELGYQIGFPWSLGVGINFSYTTPNILIDDGDITRPPFGLNSVITPNLFPGVSISADLGNGPGIQEVATFSVDVSGAEGGVAVSNAHGTVTGAAGGVLLRPFARLIASTGDSVTTYGEPWNMN | soluble |
| MGSDKIHHHHHHMSETELRKRQAQFTRELHGDDIGKKTGLSALMSKNNSAQKEAVQKYLRNWDGRTDKDAEERRLEDYNEATHSYYNVVTDFYEYGWGSSFHFSRFYKGESFAASIARHEHYLAYKAGIQRGDLVLDVGCGVGGPAREIARFTGCNVIGLNNNDYQIAKAKYYAKKYNLSDQMDFVKGDFMKMDFEENTFDKVYAIEATCHAPKLEGVYSEIYKVLKPGGTFAVYEWVMTDKYDENNPEHRKIAYEIELGDGIPKMFHVDVARKALKNCGFEVLVSEDLADNDDEIPWYYPLTGEWKYVQNLANLATFFRTSYLGRQFTTAMVTVMEKLGLAPEGSKEVTAALENAAVGLVAGGKSKLFTPMMLFVARKPENAETPSQTSQEATQ | not soluble |
| MFSIFMRIPDTAQVDAVFSGAYASIEQGLCYDEVNDWENTLAMYEKGLNLIVEGEKMKNARKSEMWKMLQESKSSVQHRINVLKKEGPKQPTPKKIKEAEESVENEKEAIRMQLDSFGSQEADLIYFLPEGVQLFTIDGEKTTAPTAPTSLQILRFPQPTDGGASSDTLAFMQVGPWAYPLMGAKTPVLRNEFGAYLVANPTPENPNMTVAILLSSDIERRLIEELHIVLREFTDFKEQAEPSTELSKEEKNRISTTISNFLIKGGQKIAWGVETTTVRVISRVEDNGEQYRTTLIATDKPMQVSPVIKGSVVYMHKGTKTVAKCTRYLLDKIGDMGVSMGKKLADSAQRRFGDGKSGGLVSGTIEILGGGITGVATVWMSLEDGSRHLCRSIANQTVQNVKLKYGDDASDTTHHALFAAGHGTLAAAQLWDLGPRSVAGRMARKAGIQMVSDLHHSRKGSRLDQEVPALELKKAV | not soluble |
| MKIAVVTESSANLKAQAVKDYQITVVNDPIMFGNHVYHENVDITTDQFYRLLKVEKEIPTISQISMPEMQVVFDQLQAAGYDQILVIGLSSGISGWINNLKTYAPSVDGIDVRVFDSRTACAGTANMVKLAAAMALADYTLDEIIAQLTRLRAATTTVLIVNSMRHLVKNGRIYNNSSLAGTMVLRNKPIITFNGHGKIQLLGKERTLKNAQQAVQDEFSQFVMNSQLPVRLDVISANDARIAEDWASELRYQFPAVRVKTGVIGPVLGVLTGDHALGMIWSLDWKPLLTTLNQEQKQ | not soluble |
| MIHIDKNVRTSGAYVMYKNSFVFQVGPTSKGDTLGVVRLGGHKEADETAVETAKREVEEEASIDITILNSPTTYYKEYWNAQSKKLKVENKVNPILIIDSPDESLSIMYVAYSKMQPKPSSETKGLLLLSLNDIELICTGKITLNDYINQGGVSILKEKMDKELILQPFPQLMFLSELLKEDPVLLQQFLNLEHHHHHH | soluble |
| MGSDKIHHHHHHMELRHLRYFAATAEELNFTRAANRLHISQPAVSRLIKELECELGAQLFTRERFGLRLTAAGEKFLFYARRVLQDCEEGIRAVRENGLNHQKLTIGFISTAMESFLSDALVRLSQERPDIDVTVNEMSPGDQIAALRYRQIDLGFIGNPHDGAGDEFELYVLREVPLVAVLPVRHRLAGRSEICIGELEGDTFIGYLEDKFPGRNRVISTACARAGFRPKFELKAGSLIEVLGMIGTGKGVCLMPSDVAGLPHPNVAFIPLRDPLDPVRLAAAWLPGNTNPALHQLIAILAADCSSDTGRTSR | not soluble |
| MLLSLYIPPGRPLSDVMTLLRQEYSITDNIKLKRTRQAVKRALSAAMDRLQMLTSTPPNGLVLFCGEDMSTGKFECFMFSPPEPIRVFYYRTDKRFITDFLEDMVEDNNAIGIIIVERDQATIGLLKGARLEVLKELEGFVPGKHKMGGQSQRRYERIIEQMVDEFFKKVGEEASNLLVPLAEKGVLKGVIVAGPGLAKQEFVEGNYLDYRLKKILAPELVDVAYQGLQGLKEAVMKAEKVVEAQMYRDAVNAMEEFKLHLAKGTGMIVYGEKDVEAALEMGAVKTLLIHESREDLEEWVEKAKSSGAQVIVVPESLAEAEWFLKTFGGLAGILRFRISTV | soluble |
| MSLGQGSILTKANTINNMEYVTEVFGAIPTEEQVSYQKEELTAFIHFGVNTFTGREWGDGTENPEIFNPTNLDADQWVKTLAEAGFGRVILTAKHHDGFCLWDSAYTKHDVASSPWKNGKGDVVKEVLEACAKYNIKFGVYLSPWDQNSEHYGDGNGGDYNEFYMNQLRELLTNYGPIAEVWMDGAKGSNVKQEYNFEEWFALIKKLQPECLIFSPQGPDIRWIGNEKGYAGEPCWSTIDIEKMKERENPTYLNNGEEGGPNWIVGESDVSIRPGWFYHESQDNEVKSLEKMMDIYFKSIGRNSVLLLNVPPNKEGKLHENDVNRLKKFGETIKELFNDDLALNKEVIVDGFANNDETYGANKIVDGDYDTYWAPDNSSKTGTIEIDLGGSKEFDVISLQEYIPLGQRVSSFNVEVLQGENWNKVYEGKTIGYKRLVRIAPTKGEKIRINITGSLEVPLINNVGVYKQPISIEEGHHHHHH | soluble |
| MPDPQGGEIVYVGGTLLDLNRYELYYQFDFTAKYEITEEDTRQAEDVNALPDLSLLSIDVDYIDPGTGPDGDIEHHLEMRFPQN | not soluble |
| MAHHHHHHMTAAADFALPDLVLFLRLYDSANVEDGQLLVQVMNEIHRQLFALAETAADAAVARGGSSTPSMAGTTIGEHDLDAANRGVKGISPAPSASPLPLPAMLYTMSSLGIVEEAVLDVVTSSAVQDGARGRRGLLYSQLRLYSVADLLQLLVALHRFGHQQQPSTKAVTMALRASLYRTSTTASRFHRRARSLKRALAARPQTPSSGEGRADAAAADADTGGVAAVIAADEELSSLAFGLGCPLFLLLEALTATATTVHRRTDVVAFLSDLIAVTAVAELTTAVHESRGRRSPAGCEDLAREAQEFVFAVSHQLLRAAKLTECMELPQILLSDVFAWSTTLSGRGVFVDGGEDNAVPSDRVAYYDHVTADLIKANSAE | not soluble |
| AQAVKEAASSDKPLIVAVTACTTGIAHIYMAEESLIKTGEKMSVNVRVETNGASGVGTPMTAEEINKAVGVIIAADKAVETACFNGKN | not soluble |
| MGSDKIHHHHHHMQVYPLIMNKLVMPAASRFTDLKIWDEYKVMLKSERLSLEQLRQMQLTKLQTIVRHAYENVPFYRQRFDSIGLHPEDIKSIEDIERIPPTTKDDIMANFPEGITAGGMDRNRWKYVASSGTTRKIMGIHDFRKSTLNWAAGIRAHRLAGNHRMGMKWMEIPPHMCTTICGINDGPKGEKLSTKKLVSLVKEGDFGGAGRHVYEGLYSMRHDLYKRVTLPSFGPEGTNIPESDIVSYLDSIRSYQPHLLEGLPLYLYTFAKYILDKGISAPRVGVIKPFGGSLTPYMKQIIATAFGCEVYDTYGCSELGFMAADCPKHEGVHLFMDLYHVEVRHGDRAAAPGELGKFYVTDLENRAMPWIRYEIGDVGRYFEDDHGCGRRGIRLEVEGRVQDTLVNSQGRFFTSDEVFDFFHRREEIDNFQLTEKSAGRYELLCVPVEGKEVDREGIARDFREFFDTEANVKAYAVKTIKAEDGGKFRFIKAKGHDRL | not soluble |
